# Measured values as given in patent publication US7867500B2, “Cofactor that modulates steroid receptor activities” (The United States of America as represented by the …, priority 2004, dated 2011).
# T1: TIF2.4 (Homo sapiens, UniProt Q15596)
# T1 sequence (Q15596 624-1010 limits assumed): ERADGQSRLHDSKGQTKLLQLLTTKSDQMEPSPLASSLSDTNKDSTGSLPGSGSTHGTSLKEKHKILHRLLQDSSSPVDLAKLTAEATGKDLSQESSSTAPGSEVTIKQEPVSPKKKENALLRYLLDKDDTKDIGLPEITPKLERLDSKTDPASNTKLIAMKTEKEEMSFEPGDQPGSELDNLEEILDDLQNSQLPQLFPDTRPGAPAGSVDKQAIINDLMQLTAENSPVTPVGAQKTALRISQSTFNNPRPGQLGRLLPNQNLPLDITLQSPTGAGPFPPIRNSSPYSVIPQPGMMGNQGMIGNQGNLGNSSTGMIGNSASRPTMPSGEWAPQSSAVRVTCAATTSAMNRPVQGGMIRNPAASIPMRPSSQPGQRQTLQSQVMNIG
# T2: glucocorticoid receptor (GR) (Rattus norvegicus, UniProt P06536)
# T2 construct: made in house; host or cells: cell-free coupled transcription/translation (Promega TNT SP6); the GST partner was made in E. coli BL21
# T2 sequence (P06536 1-795): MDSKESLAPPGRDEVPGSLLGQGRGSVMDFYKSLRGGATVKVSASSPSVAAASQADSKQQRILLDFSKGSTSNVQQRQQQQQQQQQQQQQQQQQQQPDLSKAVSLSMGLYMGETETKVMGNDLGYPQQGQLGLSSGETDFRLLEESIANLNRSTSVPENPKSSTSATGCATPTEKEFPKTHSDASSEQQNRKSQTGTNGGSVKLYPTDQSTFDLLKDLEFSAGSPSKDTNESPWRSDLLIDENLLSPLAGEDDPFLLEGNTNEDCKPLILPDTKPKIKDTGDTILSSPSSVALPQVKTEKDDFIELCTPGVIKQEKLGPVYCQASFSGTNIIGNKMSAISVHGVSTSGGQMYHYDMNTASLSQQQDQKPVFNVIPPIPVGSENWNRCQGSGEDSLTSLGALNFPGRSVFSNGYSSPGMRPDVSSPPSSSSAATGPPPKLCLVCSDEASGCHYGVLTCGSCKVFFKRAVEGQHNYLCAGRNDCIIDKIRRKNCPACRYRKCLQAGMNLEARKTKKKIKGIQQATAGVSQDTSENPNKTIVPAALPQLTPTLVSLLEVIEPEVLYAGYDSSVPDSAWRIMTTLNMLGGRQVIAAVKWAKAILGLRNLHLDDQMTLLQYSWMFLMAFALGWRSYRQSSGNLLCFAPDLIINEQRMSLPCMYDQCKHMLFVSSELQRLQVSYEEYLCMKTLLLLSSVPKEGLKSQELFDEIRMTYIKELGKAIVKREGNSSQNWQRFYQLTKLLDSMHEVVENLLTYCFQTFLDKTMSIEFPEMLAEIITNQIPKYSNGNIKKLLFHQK
# T2 sequence (Q6EMB2 960-1281 F1267S partner limits assumed): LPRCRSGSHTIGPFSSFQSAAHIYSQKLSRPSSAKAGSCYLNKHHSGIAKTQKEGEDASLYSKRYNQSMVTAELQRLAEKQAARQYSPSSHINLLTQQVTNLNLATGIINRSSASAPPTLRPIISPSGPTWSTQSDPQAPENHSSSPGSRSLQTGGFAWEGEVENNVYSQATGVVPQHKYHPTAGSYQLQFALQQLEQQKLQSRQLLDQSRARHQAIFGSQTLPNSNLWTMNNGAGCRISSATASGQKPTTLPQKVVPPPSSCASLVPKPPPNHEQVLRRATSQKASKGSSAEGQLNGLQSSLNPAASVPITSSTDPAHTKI
# Key:
# STAMP = target: T3, STAMP (Homo sapiens, UniProt Q6EMB2); assay: siRNA assay: fold repression by GR of AP-1/Luc reporter in U2OS.rGR cells; format: cell-based; settings: 500 ng siRNA, without HA/STAMP plasmid
# T3 construct: Indirect immunofluorescence, using HA-tagged full-length STAMP; expressed in transfected cells; host or cells: U2OS.rGR
# T3 sequence (Q6EMB2 5-1281 A149V/F1267S limits assumed): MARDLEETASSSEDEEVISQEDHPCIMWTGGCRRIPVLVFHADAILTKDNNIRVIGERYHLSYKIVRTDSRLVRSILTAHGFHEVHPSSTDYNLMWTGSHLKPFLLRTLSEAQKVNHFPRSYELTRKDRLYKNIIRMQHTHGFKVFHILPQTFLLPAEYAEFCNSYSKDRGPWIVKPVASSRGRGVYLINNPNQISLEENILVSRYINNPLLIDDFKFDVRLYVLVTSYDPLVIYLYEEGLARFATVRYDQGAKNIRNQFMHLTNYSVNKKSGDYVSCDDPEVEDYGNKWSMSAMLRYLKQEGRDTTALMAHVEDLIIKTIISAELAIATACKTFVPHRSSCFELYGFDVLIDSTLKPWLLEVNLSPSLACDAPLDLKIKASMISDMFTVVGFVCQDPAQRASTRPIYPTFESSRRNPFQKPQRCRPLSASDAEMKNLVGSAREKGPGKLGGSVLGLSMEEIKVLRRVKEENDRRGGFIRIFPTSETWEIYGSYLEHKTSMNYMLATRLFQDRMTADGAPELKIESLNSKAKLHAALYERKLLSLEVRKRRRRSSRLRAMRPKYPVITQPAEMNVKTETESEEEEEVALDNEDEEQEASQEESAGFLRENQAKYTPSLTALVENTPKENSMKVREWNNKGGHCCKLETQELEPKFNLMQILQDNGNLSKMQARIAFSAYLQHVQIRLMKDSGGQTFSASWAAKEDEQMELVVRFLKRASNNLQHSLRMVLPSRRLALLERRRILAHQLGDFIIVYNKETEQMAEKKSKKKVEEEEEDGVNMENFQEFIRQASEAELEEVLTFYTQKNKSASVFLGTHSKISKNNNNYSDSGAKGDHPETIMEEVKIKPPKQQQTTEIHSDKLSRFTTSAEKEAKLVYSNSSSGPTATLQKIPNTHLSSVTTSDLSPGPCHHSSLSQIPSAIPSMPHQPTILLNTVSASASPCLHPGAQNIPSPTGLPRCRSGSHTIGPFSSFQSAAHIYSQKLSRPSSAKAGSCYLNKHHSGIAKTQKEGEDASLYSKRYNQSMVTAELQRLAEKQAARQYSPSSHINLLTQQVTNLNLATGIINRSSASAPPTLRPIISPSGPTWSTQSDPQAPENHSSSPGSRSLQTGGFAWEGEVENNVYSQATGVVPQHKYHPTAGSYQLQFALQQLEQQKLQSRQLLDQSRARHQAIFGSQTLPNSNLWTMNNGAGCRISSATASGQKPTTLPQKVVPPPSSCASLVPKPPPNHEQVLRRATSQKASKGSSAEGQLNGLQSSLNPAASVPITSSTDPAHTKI
# Experimental: U2OS.rGR cells were transiently transfected with (FIG. 5E) or without (FIG. 5F) HA/STAMP plasmid (100 ng) and ±500 ng of STAMP siRNA, or β-actin siRNA, plus AP-1/Luc reporter (20 ng) and the Renilla control (10 ng) plasmid. The cells were processed and the fold repression with each treatment was calculated as described in FIG. 5A. The average values were then plotted (±S.E.M., n=4-5 (FIG. 5D) and 7 (FIG. 5E); *, P≦0.032; **, P=0.0022).
# Four different siRNA oligonucleotides for STAMP were designed and synthesized by Qiagen:
# A control β-actin siRNA was also purchased from Qiagen. U2OS.rGR cells were seeded at 50,000 cells per well in 24 wells plate the day before transfection. DNA (STAMP plasmid and AP-1/Luc reporter; total=150 ng) together with 500 ng siRNA were mixed with 1.6 μl Lipofectamine 2000 (Invitrogen), allowed to stand at room temperature for 15 min, and then added to FBS-free DMEM pre-washed cells. Four hours later, the cells were re-fed with DMEM/10% FBS (containing G418), allowed to recover for 2 h, and re-fed with DMEM/10% FBS (containing G418) containing appropriate hormone dilutions±PMA. The cells were harvested and Luciferase activity was determined as described above in the standard transient transfection studies.
# TIF2.4 [1] = target: T1, TIF2.4; assay: Mammalian two-hybrid assay in CV-1 cells (pFRLuc reporter) with TIF2.4; format: cell-based; parameters: expressed in transfected cells; host or cells: CV-1
# Text: FIG. 2A-2C illustrate the isolation and characterization of the partial clone of the protein that binds to TIF2.4. […] Five clones were obtained but only two (clones I and V) contained a protein that was needed for colony growth in the presence of the pSos/TIF2.4 fusion protein. After initial screening, only clone I (also named 6-6CL1) was selected for further investigation. FIG. 2B and FIG. 2C illustrate the selectivity of 6-6CL1 interactions with TIF2.4 in mammalian two-hybrid assays. Triplicate samples of CV-1 cells in 24-well plates were transiently transfected with the indicated GAL-DBD and VP16-AD plasmids along with the GAL4-regulated reporter, pFRLuc. The relative luciferase activity, normalized for the activity of the internal Renilla control, was determined and plotted as the average±S.D. The much lower activity of GAL/TIF2.4m123 was previously shown not to be due to unequal levels of protein expression (He et al., 2002). Similar results were obtained in three additional experiments. FIG. 2D and FIG. 2E provide a comparison of binding to 6-6CL1 by similarly positioned domains of SRC-1 and TIF2. Triplicate samples of CV-1 cells in 24-well plates were analyzed as in (B&C) after being transiently transfected with GAL±6-6CL1 constructs and pFRLuc reporter along with VP16 chimeras of SRC-1 (FIG. 2D) or TIF2 (FIG. 2E) segments. Similar results for SRC-1 were obtained in two additional experiments (ND=not determined). Western blots (FIG. 2F) indicate that the low activity of TIF2(1140C) (see FIG. 1) is not due to inadequate protein expression.
# FIGS. 6A and 6B illustrate the domains of STAMP that interact with TIF2.4 (FIG. 6A) and GR (FIG. 6B) in the mammalian two-hybrid assay. […] These CV-1 cells were also transfected with GAL fused to the indicated segments of STAMP along with the FRLuc reporter and Renilla control plasmids. After determining the relative luciferase activities as described in FIG. 2B and 2C, the average values±S.E.M. from 2-5 experiments were plotted. The average fold increase for VP16/TIF2.4 with GAL/STAMP(623-834) in FIG. 6A was 11.0±3.0 (SEM, n=5) above the VP16 control. The values in parentheses above the data bars in FIG. 6B indicate the fold increased interaction ±1 μM Dex.
# These assays were conducted as described (He et al., 2002). In particular, the recommended procedure for the Mammalian Matchmaker two-hybrid assay kit (Clontech) was modified slightly by changing from a chloramphenicol acetyltransferase reporter to a Luciferase Reporter pFRLuc (Stratagene), which is under the control of five repeats of the upstream activating sequence for the binding of GAL4.
# TIF2.4 [2] = target: T1, TIF2.4; assay: Cell-free pulldown of [35S]-labeled STAMP constructs by GST/TIF2.4; format: binding; settings: compared with GST itself
# Text: (§1) FIGS. 7A and 7B illustrate the domains of STAMP that bind to TIF2.4 (FIG. 7A) and GR (FIG. 7B) in cell-free pulldown assays. Bacterially expressed GST-chimeras (GST/TIF2.4 in FIG. 7A and GST/STAMP segments in FIG. 7B) were immobilized on glutathione-Sepharose beads. The [^35S]methionine labeled STAMP fragments (FIG. 7A) or wild type GR (FIG. 7B) that were retained on the matrix by binding to the GST chimeras were separated on SDS PAGE gels and visualized by autoradiography. Specific binding was seen as when the GST/TIF2.4 or GST/STAMP bands were darker than the GST control bands. […] Similar results were obtained in a second experiment.
# (§2) Template DNA plasmids (1 μg), 40 μl of Promega TNT (SP6) quick coupled transcription/translation system master mixture, and 2 μl of [^35S]methionine (Amersham Biosciences) were brought up to a total volume of 50 μl with H2O and incubated at 30° C. for 90 min according to the manufacturer's (Promega) recommendations. If hormone stimulation is needed, hormones (Dex, etc) were added into the transcription-translation reaction during the 30° C. incubation to both increase the stability of the synthesized GR and to cause activation of the GR-steroid complexes.
# These assays were conducted generally as described (He et al., 2002). Sonicated bacterial lysates (1 ml) containing overexpressed GST, GST/TIF2.4, or GST/STAMP-956C were incubated with 160 μl of glutathione-Sepharose 4B beads for 1 hr at 0° C. The mixture was centrifuged (12,000×g), the supernatant was discarded, and the pellet was washed with phosphate-buffered saline (3×1 ml). Each 20-μl sample of immobilized GST or GST-chimera was then incubated overnight with 10 μl of ^35S-labeled in vitro translation product. The matrix was washed with phosphate-buffered saline (4×1 ml). The immobilized proteins were removed from the beads by heating at 90° C. for 5 min in 20 μl of 2×SDS loading buffer. The proteins were separated on 8-10% SDS-PAGE gels and detected by radio-autoradiography.
# [3] = target: T2, glucocorticoid receptor (GR); assay: Cell-free pulldown of [35S]-labeled GR by GST/STAMP segment; format: binding; settings: with and without steroid
# Text: as §1, §2
# These assays were conducted generally as described (He et al., 2002). […] The proteins were separated on 8-10% SDS-PAGE gels and detected by radio-autoradiography.
molecule,measurement,setting,value
"CAGCACTGACTATAACCTAAT (chemistry not given here) [STAMP siRNA #3, siRNA oligonucleotide for STAMP synthesized by Qiagen]",repressive activity of GR-agonist complexes (endogenous STAMP),STAMP,can reduce the repressive activity of GR-agonist complexes
"GAGGGCAATGAGGCCAAAATA (chemistry not given here) [STAMP siRNA #4, siRNA oligonucleotide for STAMP synthesized by Qiagen]",repressive activity of GR-agonist complexes (endogenous STAMP),STAMP,can reduce the repressive activity of GR-agonist complexes
"N623: STAMP fragment amino acids 1-623, TTL domain but not the CID region (protein, GAL4 DBD fusion, STAMP fragment amino acids 1-623, TTL domain but not the CID region) MARDLEETASSSEDEEVISQEDHPCIMWTGGCRRIPVLVFHADAILTKDNNIRVIGERYHLSYKIVRTDSRLVRSILTAHGFHEVHPSSTDYNLMWTGSHLKPFLLRTLSEAQKVNHFPRSYELTRKDRLYKNIIRMQHTHGFKVFHILPQTFLLPAEYAEFCNSYSKDRGPWIVKPVASSRGRGVYLINNPNQISLEENILVSRYINNPLLIDDFKFDVRLYVLVTSYDPLVIYLYEEGLARFATVRYDQGAKNIRNQFMHLTNYSVNKKSGDYVSCDDPEVEDYGNKWSMSAMLRYLKQEGRDTTALMAHVEDLIIKTIISAELAIATACKTFVPHRSSCFELYGFDVLIDSTLKPWLLEVNLSPSLACDAPLDLKIKASMISDMFTVVGFVCQDPAQRASTRPIYPTFESSRRNPFQKPQRCRPLSASDAEMKNLVGSAREKGPGKLGGSVLGLSMEEIKVLRRVKEENDRRGGFIRIFPTSETWEIYGSYLEHKTSMNYMLATRLFQDRMTADGAPELKIESLNSKAKLHAALYERKLLSLEVRKRRRRSSRLRAMRPKYPVITQPAEMNVKTETESEEEEEVALDNEDEEQEASQEESAGFLRENQAKYTPSLTALVE",interaction with TIF2.4,TIF2.4 [1],weak response
same,binding to GST/TIF2.4,TIF2.4 [2],neither the amino terminal (N623) nor the C-terminal (834C) fragments exhibit significantly more binding to GST/TIF2.4 than to GST itself
"GST/STAMP(956C): GST chimera of STAMP fragment amino acids 956 to 1277 (protein, GST fusion) LPRCRSGSHTIGPFSSFQSAAHIYSQKLSRPSSAKAGSCYLNKHHSGIAKTQKEGEDASLYSKRYNQSMVTAELQRLAEKQAARQYSPSSHINLLTQQVTNLNLATGIINRSSASAPPTLRPIISPSGPTWSTQSDPQAPENHSSSPGSRSLQTGGFAWEGEVENNVYSQATGVVPQHKYHPTAGSYQLQFALQQLEQQKLQSRQLLDQSRARHQAIFGSQTLPNSNLWTMNNGAGCRISSATASGQKPTTLPQKVVPPPSSCASLVPKPPPNHEQVLRRATSQKASKGSSAEGQLNGLQSSLNPAASVPITSSTDPAHTKI",binding of full length GR,[3],this binding is steroid-independent
